In this series the target is CsrA-His6 (Escherichia coli, UniProt P69913 1-61). Kind of series: EMSA.
Sequence of CsrA-His6 (P69913 whole entry): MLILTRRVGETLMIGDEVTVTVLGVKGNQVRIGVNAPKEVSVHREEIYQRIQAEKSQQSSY

B1: ydeH transcript (-29 to +25) (ssRNA)
RNA: GGGCACAAGGAACUGUGAAAAAGGAGUGGCAAUGAUCAAGAAGACAACGGAAAUUG
With B1, the Kd amounted to 2.3 ± 0.1 nM.

B2: ycdT transcript (-36 to +20) (ssRNA)
RNA: GGGAAAGGGAUCUACAACCUACAGAUUGGUGUAGCUUUAUGGAAAAAGACUAUUUGAG
B2 gave a Kd of 2.6 ± 0.3 nM.

For the origin of these results see publication PMC2735045.
